Reference: US20260042834A1 (HBM ALPHA THERAPEUTICS, published 2026)
Residue numbers refer to the chain shown, from its start. Several values for one entry are separate records, joined by “and”; a condition that tells them apart may be missing. Identical values can stand only once. Like-named read-outs stand apart in the source and are kept apart here.

B1: PR302341 (antibody, human IgG1, kappa, V domains shown)
VH: EVQLQQSGPELVKPGASVKMSCKASGYTFTDYFMKWVKQSHGESLEWIGVINPNNGDIFYNQKFKGKATLTVDKSSSTAFMQLNSLTSEDSAVYSCARGTDRALFAYWGQGTLVAVSA
VL: DVLMTQTPLSLPVSLGDQASISCRSGQSIVHSDGNTYLEWYLQRPGQSPRLLIYKVSNRFSGVPDRFSGSGSGTDFTLKISRVGAEDLGIYYCFQGSHIPWTFGGGTKLEVKR
B2: PR302341-21 (antibody, human IgG1, kappa, V domains shown)
VH: QVQLVQSGAEVKKPGASVKVSCKASGYTFTDYFMKWVRQAPGQRLEWMGVINPNNGDIFYNQKFKGRVTITVDKSASTAYMELSSLRSEDTAVYYCARGTDRALFAYWGQGTLVTVSS
VL: B1 VL with L3V, T7S, S14T, D17Q, Q18P, L42Q, G84E, I90V, L109V, V111I
B3: PR302341-23 (antibody, human IgG1, kappa, V domains shown)
VH: B2 VH with R44G, I70M, A76I, S85R, E89D
VL: B1 VL with L3V, T7S, S14T, D17Q, Q18P, L42Q, G84E, I90V, L109V, V111I
B4: PR302341-19 (antibody, human IgG1, kappa, V domains shown)
VH: B2 VH with R44G, I70M, V72R, K74T, A76T, A79V
VL: B1 VL with L3V, T7S, S14T, D17Q, Q18P, L42Q, G84E, I90V, L109V, V111I
B5: PR302341-22 (antibody, human IgG1, kappa, V domains shown)
VH: B2 VH with R44G, I70M, V72R, K74T, A76I, S85R, E89D
VL: B1 VL with L3V, T7S, S14T, D17Q, Q18P, L42Q, G84E, I90V, L109V, V111I
B6: PR302341-20 (antibody, human IgG1, kappa, V domains shown)
VH: B2 VH with V72R, K74T
VL: B1 VL with L3V, T7S, S14T, D17Q, Q18P, L42Q, G84E, I90V, L109V, V111I
B7: PR302341-10 (antibody, human IgG1, kappa, V domains shown)
VH: B2 VH with R44G, I70M, A76T
VL: DVVMTQTPLSSPVTLGQPASISCRSGQSIVHSDGNTYLEWYQQRPGQPPRLLIYKVSNRFSGVPDRFSGSGAGTDFTLKISRVEAEDLGVYYCFQGSHIPWTFGGGTKVEIKR
B8: PR302341-27 (antibody, human IgG1, kappa, V domains shown)
VH: B2 VH with R44G, I70M, A76I, S85R, E89D
VL: B7 VL with S11L, P12S, L15P, Q42L, R44K, P48S, R50Q, A72S
B9: PR302341-24 (antibody, human IgG1, kappa, V domains shown)
VH: B2 VH
VL: B7 VL
B10: PR302341-25 (antibody, human IgG1, kappa, V domains shown)
VH: B2 VH
VL: B7 VL with S11L, P12S, L15P, Q42L, R44K, P48S, R50Q, A72S
B11: PR302341-26 (antibody, human IgG1, kappa, V domains shown)
VH: B2 VH with R44G, I70M, A76I, S85R, E89D
VL: B7 VL
B12: PR302334 (antibody, human IgG1, kappa, V domains shown)
VH: EVKLVESGGGLVKPGGSLKLSCAASGFTFSTYAMSWVRQTPEKRLEWVASIRSGGTTYYPDSVKGRFTISRDNARNILYLQMSSLRSEDTAIYYCTRGIDWGQGTLVTVSA
VL: NIVMTQTPKFLLVSAGDRITITCKASQSVNNDVAWYQQKPGQSPKLLIYYASNRYTGVPDRFTGSGYGTDFTFTISTVQAEDLAVYFCQQDYSSWTFGGGTNLEIKR
B13: PR302334-18 (antibody, human IgG1, kappa, V domains shown)
VH: EVQLVESGGGLVQPGGSLRLSCAASGFTFSTYAMSWVRQAPGKGLEWVASIRSGGTTYYPDSVKGRFTISRDNSKNSLYLQMNSLRAEDTAVYYCTRGIDWGQGTTVTVSS
VL: B12 VL
B14: PR302334-5 (antibody, human IgG1, kappa, V domains shown)
VH: B12 VH
VL: DIQMTQSSLSASVSLGDRVTITCKASQSVNNDVAWYQQKPGKAPRLLIYYASNRYTGVPSRFSGSGSGTDFTFTISSLQPEDIATYYCQQDYSSWTFGGGTKVEIKR
B15: PR302334-6 (antibody, human IgG1, kappa, V domains shown)
VH: B12 VH
VL: B14 VL with I83L, Y87F
B16: PR302334-14 (antibody, human IgG1, kappa, V domains shown)
VH: B13 VH with S77T
VL: B12 VL
B17: PR302334-2 (antibody, human IgG1, kappa, V domains shown)
VH: B12 VH
VL: EIVMTQSPATLSVSPGERATLSCKASQSVNNDVAWYQQKPGQAPRLLIYYASNRYTGIPARFSGSGSGTEFTLTISSLQSEDLAVYFCQQDYSSWTFGGGTKVEIKR
B18: PR302334-16 (antibody, human IgG1, kappa, V domains shown)
VH: B13 VH with Q13K, S74A
VL: B12 VL
B19: PR302334-17 (antibody, human IgG1, kappa, V domains shown)
VH: B13 VH with A49S, T96A
VL: B12 VL
B20: PR302334-3 (antibody, human IgG1, kappa, V domains shown)
VH: B12 VH
VL: DIVMTQSPDSLAVSLGERATINCKASQSVNNDVAWYQQKPGQPPRLLIYYASNRYTGVPDRFSGSGSGTDFTLTISSLQAEDVAVYYCQQDYSSWTFGGGTKVEIKR
B21: PR302334-1 (antibody, human IgG1, kappa, V domains shown)
VH: B12 VH
VL: B17 VL with L83F, F87Y
B22: PR302334-15 (antibody, human IgG1, kappa, V domains shown)
VH: B13 VH with Q13K, A49S, S74A, T96A
VL: B12 VL
B23: PR302334-4 (antibody, human IgG1, kappa, V domains shown)
VH: B12 VH
VL: B20 VL with V83L, Y87F
B24: PR302334-7 (antibody, human IgG1, kappa, V domains shown)
VH: B13 VH with S77T
VL: B17 VL with L83F, F87Y
B25: PR302334-24 (antibody, human IgG1, kappa, V domains shown)
VH: B13 VH with Q13K, S74A
VL: B20 VL with V83L, Y87F
B26: PR302334-12 (antibody, human IgG1, kappa, V domains shown)
VH: B13 VH with S77T
VL: B14 VL with I83L, Y87F
B27: PR302334-25 (antibody, human IgG1, kappa, V domains shown)
VH: B13 VH with Q13K, S74A
VL: B14 VL with I83L, Y87F
B28: PR302334-22 (antibody, human IgG1, kappa, V domains shown)
VH: B13 VH with A49S, T96A
VL: B17 VL
B29: PR302334-8 (antibody, human IgG1, kappa, V domains shown)
VH: B13 VH with S77T
VL: B17 VL
B30: PR302334-9 (antibody, human IgG1, kappa, V domains shown)
VH: B13 VH with S77T
VL: B20 VL
B31: PR302334-11 (antibody, human IgG1, kappa, V domains shown)
VH: B13 VH with S77T
VL: B14 VL
B32: PR302334-10 (antibody, human IgG1, kappa, V domains shown)
VH: B13 VH with S77T
VL: B20 VL with V83L, Y87F

How the values were obtained:
Assay in all cases: cell-based or functional assay
[1] = target: T1, corticotropin-releasing hormone (CRH) peptide (human and mouse (same sequence), not fully specified)
T1 peptide: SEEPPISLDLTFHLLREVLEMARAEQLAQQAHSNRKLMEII

[2] = target: T1, corticotropin-releasing hormone (CRH) …
[3] = target: T1, corticotropin-releasing hormone (CRH) …

Binder	hCRHR1 Luciferase Reporter Assay IC50 [2]	hCRHR1 Luciferase Reporter Assay IC50 [3]	also measured
B1	–	–	hCRHR1 Luciferase Reporter Assay IC50 [1]: 0.437 nM; mCrhr1 Luciferase Reporter Assay IC50 [1]: 1.71 nM; mCrhr1 Luciferase Reporter Assay IC50 [2]: 0.611 nM
B2	0.177 nM	–	mCrhr1 Luciferase Reporter Assay IC50 [2]: 0.541 nM
B3	0.043 nM	–	hCRHR1 Luciferase Reporter Assay IC50 [1]: 0.351 nM; mCrhr1 Luciferase Reporter Assay IC50 [1]: 1.19 nM; mCrhr1 Luciferase Reporter Assay IC50 [2]: 0.111 nM
B4	0.121 nM	–	mCrhr1 Luciferase Reporter Assay IC50 [2]: 0.365 nM
B5	0.243 nM	–	–
B6	0.162 nM	–	hCRHR1 Luciferase Reporter Assay IC50 [1]: 0.188 nM; mCrhr1 Luciferase Reporter Assay IC50 [1]: 1.62 nM; mCrhr1 Luciferase Reporter Assay IC50 [2]: 0.451 nM
B7	0.11 nM	–	hCRHR1 Luciferase Reporter Assay IC50 [1]: 0.342 nM; mCrhr1 Luciferase Reporter Assay IC50 [1]: 1.6 nM; mCrhr1 Luciferase Reporter Assay IC50 [2]: 0.29 nM
B8	0.518 nM	–	–
B9	0.192 nM	–	mCrhr1 Luciferase Reporter Assay IC50 [2]: 0.156 nM
B10	0.711 nM	–	–
B11	0.273 nM	–	–
B12	–	0.26 nM and 0.644 nM	mCrhr1 Luciferase Reporter Assay IC50 [3]: 0.672 nM
B13	–	0.279 nM	–
B14	–	0.325 nM	–
B15	–	0.404 nM	–
B16	–	0.468 nM	–

Binder	hCRHR1 Luciferase Reporter Assay IC50 [2]	hCRHR1 Luciferase Reporter Assay IC50 [3]	also measured
B17	–	0.597 nM	–
B18	–	0.339 nM	–
B19	–	12.2 nM	–
B20	–	0.542 nM	–
B21	–	0.624 nM	–
B22	–	5.12 nM	–
B23	–	0.553 nM	–
B24	–	0.996 nM	–
B25	–	0.778 nM	mCrhr1 Luciferase Reporter Assay IC50 [3]: 1.82 nM
B26	–	0.986 nM	–
B27	–	1.7 nM	–
B28	–	0.92 nM	–
B29	–	0.816 nM	mCrhr1 Luciferase Reporter Assay IC50 [3]: 2.61 nM
B30	–	1.42 nM	–
B31	–	1 nM	–
B32	–	0.839 nM	mCrhr1 Luciferase Reporter Assay IC50 [3]: 2.66 nM
